Source: PMC2245940, “Blocking binding of Bacillus thuringiensis Cry1Aa to Bombyx mori cadherin receptor results in only a minor reduction of toxicity” (BMC Biochemistry, 2008)

B1: Bombyx mori aminopeptidase N (receptor)
chain: LSPIPVPEDEWVEFARMLRDPAFRLPTTTRPRHYQVTLTPYFDVVPANVNPFTFDGEVTIYTSPTVANVNEVVIHCNDLTIQSLSIGYQSGTNVVDITATGQTFACEMPFSFLRIRTTEALVLNREYIIKSTFRGNLQTNMRGFYRSWYVDSTGRRWMGTTQFQPGHARQAFPCYDEPGFKATFDITMNREESFSPTISNMPIRTTNTLANGRVSETFWTTPVTSTYLLAFIVSHYTVVSTNNNALRPFDIYARNNVGRTGDWSLEIGEKLLEAMEAYTQIPYYTMAENINMKQAAIPDFSAGAMENWGLLTYREALILYDPLNSNHFYKQRVANIVAHEIAHMWFGNLVTCAWWDNLWLNEGFARFYQYYLTASVAPELGYETRFIVEQVQMAMFSDSVDTAHALTDLNVNDPTTVSAHFSTITYARGAAILRMTQHLLGVETFVKGLRNYLRERQFNVAEPHHLFTALDAAAVEDGALNGYGGITIDTYFRTWSEKAGHPLLTVTINQRTGEMIVTQERWERNTGVSQFPSLWHIPITWTRAGAPEFEDLKPSQFISQQVTSINRGTTGLEWVIFNKQEAGFYRVNYDDTNWALLTRALRSSSRTAIHQLNRAQIVDDIFQLARANVMKYNRAFNILSFLQFEDEYAPWLAAISGFNFLIRRLAHDSTNAALLQKLILELSPAVVAKLGYLEPENGSYMTDLQRMYVMEFLCNVGHEECNNFGTQAFRRWSTGTFIPANMRPWVYCAGLRHGTAEDFNFFWNRYLQEDLSSEKVVMLNVAGCTTDQASLNRFLDAIVSGNDDIRPQDYNAALTSAITSNEINTLRAFQWLRNNVDQATRTLGSVSTILNTIIGRLLNEEQINEVSNWLTANQNTLGATYSTALRAIETTRSNLVWSQQRISEFTNYFESGYVEDVIEEITEAPPTAPPTAPPTEAPAVTPAPDSANVAALSFITLIITLAVNLA

Legend:
[1] = molecular target: Bombyx mori cadherin-like protein BtR175 (Bombyx mori (endogenous in larval midgut)); experiment: SPR; receptors (100-200 ng) amine-coupled to a CM5 chip; toxin 100-1000 nM injected in HBS pH 7.4 (10 mM Hepes, 150 mM NaCl, 3.4 mM EDTA) at 50 ul/min; blank flowcell subtracted; 1:1 Langmuir fit; apparent rate constants
[2] = molecular target: Bombyx mori cadherin-like protein BtR175 (Bombyx mori (endogenous in larval midgut))
[3] = molecular target: T1, Bacillus thuringiensis Cry1Aa insecticidal protein, wild type, trypsin-activated toxin (Bacillus thuringiensis, UniProt P0A366 1-1176); experiment: SPR; receptors (100-200 ng) amine-coupled to a CM5 chip; toxin 100-1000 nM injected in HBS pH 7.4 (10 mM Hepes, 150 mM NaCl, 3.4 mM EDTA) at 50 ul/min; blank flowcell subtracted; 1:1 Langmuir fit; apparent rate constants; details: both partners purified
T1 construct: trypsin-resistant 65 kDa toxin cut from the solubilized protoxin; also called Cry1Aa (Wt); Cry1Aa wt; source: E. coli MV1190 containing pBN-1Aa; crystal inclusion bodies solubilized, trypsin-digested, purified (Superdex 200, monomeric fraction)

Molecule	Kd [1]	koff [1]	kon [1]	LC50 against B. mori larvae (surface contamination bioassay, mortality after 5 days) [2]	Kd [3]	koff [3]	kon [3]
Bacillus thuringiensis Cry1Aa insecticidal protein, wild type, trypsin-activated toxin (from UniProt P0A366 1-1176) (natural protein)	2.6 nM	3.3e-05 s⁻¹	13000 M⁻¹ s⁻¹	–	–	–	–
Cry1Aa mutant toxin F328A, trypsin-activated (from UniProt P0A366 1-1176) (natural protein)	60.7 nM	9.1e-05 s⁻¹	1500 M⁻¹ s⁻¹	41.5 ng/ccm	–	–	–
B1	–	–	–	–	75 nM	0.0015 s⁻¹	21000 M⁻¹ s⁻¹
